Assay results from IntAct's records for PubMed 17237231.

B1: Macrophage scavenger receptor types I and II (Homo sapiens), P21757 (parent)
chain: MEQWDHFHNQQEDTDSCSESVKFDARSMTALLPPNPKNSPSLQEKLKSFKAALIALYLLVFAVLIPLIGIVAAQLLKWETKNCSVSSTNANDITQSLTGKGNDSEEEMRFQEVFMEHMSNMEKRIQHILDMEANLMDTEHFQNFSMTTDQRFNDILLQLSTLFSSVQGHGNAIDEISKSLISLNTTLLDLQLNIENLNGKIQENTFKQQEEISKLEERVYNVSAEIMAMKEEQVHLEQEIKGEVKVLNNITNDLRLKDWEHSQTLRNITLIQGPPGPPGEKGDRGPTGESGPRGFPGPIGPPGLKGDRGAIGFPGSRGLPGYAGRPGNSGPKGQKGEKGSGNTLTPFTKVRLVGGSGPHEGRVEILHSGQWGTICDDRWEVRVGQVVCRSLGYPGVQAVHKAAHFGQGTGPIWLNEVFCFGRESSIEECKIRQWGTRACSHSEDAGVTCTL
partner: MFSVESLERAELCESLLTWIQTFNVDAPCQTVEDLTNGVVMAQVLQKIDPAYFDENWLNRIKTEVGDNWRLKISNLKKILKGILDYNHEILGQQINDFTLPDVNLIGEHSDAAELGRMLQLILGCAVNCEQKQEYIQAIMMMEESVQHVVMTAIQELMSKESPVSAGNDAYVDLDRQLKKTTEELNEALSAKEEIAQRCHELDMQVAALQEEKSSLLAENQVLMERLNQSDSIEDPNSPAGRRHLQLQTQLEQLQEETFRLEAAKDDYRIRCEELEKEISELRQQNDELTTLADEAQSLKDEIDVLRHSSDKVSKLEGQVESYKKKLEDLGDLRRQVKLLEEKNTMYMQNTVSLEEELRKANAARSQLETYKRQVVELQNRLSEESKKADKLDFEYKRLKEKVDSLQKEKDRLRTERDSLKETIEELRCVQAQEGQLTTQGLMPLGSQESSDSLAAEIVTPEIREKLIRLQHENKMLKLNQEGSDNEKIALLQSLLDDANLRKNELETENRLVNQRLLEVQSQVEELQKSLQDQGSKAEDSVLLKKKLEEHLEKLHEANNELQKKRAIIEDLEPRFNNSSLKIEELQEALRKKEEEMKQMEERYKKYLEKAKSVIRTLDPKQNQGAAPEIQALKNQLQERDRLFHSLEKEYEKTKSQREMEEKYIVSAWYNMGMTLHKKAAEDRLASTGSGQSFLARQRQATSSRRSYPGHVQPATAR

Variants of: B1
Details: with hook3_human HOOK3, Q86VS8

Row | Variant | effect of a mutation on the interaction
1 | E12A;D13A;D15A | disrupting interaction
